From patent US20140120109A1 (Regeneron, published 2014) come the findings set out here.

Assay [1] has as its target T1, cynomolgus monkey TL1A, soluble, CHO-expressed, residues 72-251 of SEQ ID NO:248 with N-terminal His6-tag (cynomolgus monkey (Macaca fascicularis), UniProt O95150 72-251 (human entry)).
T1 construct: also called MfTL1A; MfTL1A (CHO)
T1 chain: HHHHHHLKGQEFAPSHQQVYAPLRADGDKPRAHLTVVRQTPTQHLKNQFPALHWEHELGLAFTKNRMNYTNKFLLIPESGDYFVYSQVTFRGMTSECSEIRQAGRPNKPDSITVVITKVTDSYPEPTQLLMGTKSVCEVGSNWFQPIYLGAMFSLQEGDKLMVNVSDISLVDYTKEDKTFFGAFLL
As to the kind of experiment: SPR 25C, mAb captured; SPR, 25 C.

The target of assay [2] is T2, Fhm, hTL1A(Q167R), soluble, CHO-expressed, residues 72-251 of SEQ ID NO:246 (human, UniProt O95150 72-251).
T2 construct: also called Fhm (CHO); FHM (CHO)
T2 chain: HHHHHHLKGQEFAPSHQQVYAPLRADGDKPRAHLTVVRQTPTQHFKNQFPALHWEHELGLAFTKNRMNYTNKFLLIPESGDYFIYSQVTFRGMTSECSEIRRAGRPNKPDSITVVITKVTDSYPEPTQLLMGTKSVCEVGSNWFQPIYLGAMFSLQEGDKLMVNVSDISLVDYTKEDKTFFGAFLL
As to the kind of experiment: ELISA, blocks FHM (150 pM) binding hDR3-Fc; blocking of FHM binding to hDR3. The method, then: The ability of antibodies to block human TL1A binding to its cognate receptors, the DR3 and DcR3 receptors, was measured using a competition sandwich ELISA. In addition, blocking of a human TL1A variant FHM (human TL1A Q167R) and the cynomolgus monkey (Macaca fascicularis) TL1A (MfTL1A) protein binding to the human DR3 or DcR3 receptors was measured in the same manner. Constant amounts of biotinylated human TL1A or FHM (both expressed with a 6-His tag in CHO cells) or biotinylated MfTL1A (expressed in CHO cells) were separately titrated with varying amounts of antibodies. The antibody-protein complexes were incubated in solution (1 hr, 25° C.) and then transferred to microtiter plates coated with human DR3 (hDR3) or human DcR3 (hDcR3) expressed as human IgG1 Fc fusion proteins. After one hour at 25° C. the wells were washed, and bound human or monkey TL1A was detected with streptavidin conjugated with horseradish peroxidase (HRP). Wells were developed with a TMB solution to produce a colorimetric reaction and quenched with aqueous sulfuric acid before reading absorbance at 450 nm on a Perkin-Elmer Victor X5 plate reader. A sigmoidal dose-response curve was fit to the data using the Prism™ data analysis package. […] Both fully human anti-hTL1A mAbs and comparator antibodies, i.e., control mAb1 (an anti-hTL1A antibody with heavy and light chain variable domains having the amino acid sequences corresponding to SEQ ID NOS:21 and 27, respectively, of US 2009/0280116) and control mAb3 (an anti-hTL1A antibody with heavy and light chain variable domains having the amino acid sequences corresponding to SEQ ID NOS:57 and 48, respectively, of US 2009/0280116), were included in the study. NB: No binding under the conditions tested; NT: Not tested. Concentrations of biotinylated soluble ligands: (1) 150 pM; (2) 500 pM; (3) 10 pM; and (4) 50 pM.

B1: H4H1750P (antibody, human IgG4 S228P, V domains shown)
VH: QVQLVESGGGVVQPGRSLRLSCVASGFTFSNYGMHWVRQAPGKGLEWVAVISYDGNNDLYSDSVKGRFTISRDNAKNALSLQMTSLRAEDTAVYYCARDSTMTPYYYHGIDVWGQGTTVTVSA
VL: DIQMTQSPSSLSASVGDRVTITCRASQDIRNDLGWYQQKPGKAPKRLIYAASSLQSGVPSRFSGSGSGTDFTLTISSLQPEDFATYYCLQHNSYPPTFGQGTKVEIK
The Kd is the equilibrium constant for the complex coming apart. In assay [1], B1 came in with a Kd of 8.6 nM and a t1/2 of 21 min.

B2: H4H1804N (antibody, human IgG4 S228P, V domains shown)
VH: QVQLHQWGAGLLKPSETLSLTCAVSGVSFSDYHWAWIRQSPGKGLEWIGDINHRGRTNYNPSLKSRVTISLDTSGNPFSLKLTSVTAADTAVYYCARDFPNWVFDSWGQGILVTVSS
VL: EIVLSQSPGTLSLSPGERATLSCRASQSVSSSFLAWYQQYPGQAPRLLIYGASRRATGIPDRFRGSGSGTDFTLTISRLEPEDFAVYYCQQYGSSPLTFGGGTKVENK
notes: human IgG4(S108P) form of H2M1804N
The term IC50 denotes the concentration that gives 50% inhibition. Consider B2, for which the IC50 in assay [2] amounted to 0.069 nM.
